For orientation: stoichiometry N means a count of units in the complex or per binding partner.

For this assay, the target named is T1, M. tuberculosis elongation factor Ts (EF-Ts) with an N-terminal 6xHis-tag and linker (M. tuberculosis, UniProt P9WNM1 1-271).
T1 sequence: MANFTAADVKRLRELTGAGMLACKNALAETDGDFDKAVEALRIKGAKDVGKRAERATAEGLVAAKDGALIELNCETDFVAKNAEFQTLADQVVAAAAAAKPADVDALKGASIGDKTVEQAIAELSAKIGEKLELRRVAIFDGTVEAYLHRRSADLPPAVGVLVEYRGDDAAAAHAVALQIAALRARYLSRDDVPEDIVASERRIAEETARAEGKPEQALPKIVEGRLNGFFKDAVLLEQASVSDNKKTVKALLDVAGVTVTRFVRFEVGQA
As to the kind of experiment: affinity purification with mass spectrometry. The following applies: partners not purified.

B1: M. tuberculosis elongation factor Tu (EF-Tu) (natural protein)
chain: not shown
Turning to B1, the “stoichiometry N” value turned out to be 1.

(Values after publication PMC5001721, “Reconstitution of Protein Translation of Mycobacterium Reveals Functional Conservation and Divergence with the Gram-Negative Bacterium Escherichia coli” (PLoS ONE, 2016).)
